This is an account of results in patent US20200340042, “IN VITRO SELECTION FOR NUCLEIC ACID […]” (McMaster University, published 2020).

For series [1], the target named is T1, glutamate dehydrogenase (rGDH, recombinant) (Clostridium difficile, UniProt P27346 SEQ:1-421).
T1 sequence: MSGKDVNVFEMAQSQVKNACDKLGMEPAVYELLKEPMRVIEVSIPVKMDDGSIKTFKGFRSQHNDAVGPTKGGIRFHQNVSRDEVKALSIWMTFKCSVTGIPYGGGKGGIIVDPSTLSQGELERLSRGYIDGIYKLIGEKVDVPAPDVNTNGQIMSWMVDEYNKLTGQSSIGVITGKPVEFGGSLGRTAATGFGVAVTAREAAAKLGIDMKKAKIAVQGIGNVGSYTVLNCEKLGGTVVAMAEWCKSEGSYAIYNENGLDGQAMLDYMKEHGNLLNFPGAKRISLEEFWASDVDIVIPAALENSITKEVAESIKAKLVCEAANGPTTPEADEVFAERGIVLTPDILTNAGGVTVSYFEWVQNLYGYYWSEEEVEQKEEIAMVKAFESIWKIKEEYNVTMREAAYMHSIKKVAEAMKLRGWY
Put plainly: pulldown; […]; 50 mM HEPES, 150 mM NaCl, 10 mM MgCl2, 5 mM KCl, 0.02% Tween-20, pH 7.2, 25 C. The following applies: tags: His-tag; expressed in E. coli; Pro-Lab Diagnostics; chain copies: 6; label: 32P.

The target of series [2] is T1, glutamate dehydrogenase (rGDH, …). Put plainly: pulldown. The following applies: tags: His-tag; expressed in E. coli; Pro-Lab Diagnostics; chain copies: 6; label: 32P; linear. The procedure: 100 μL of 1× binding buffer containing 100 nM γ-[³²P]-labeled captamer candidates was first denatured at 90° C. for 10 min, followed by incubation at RT for 20 min. The pull-down assays were conducted in a total volume of 300 μL of 1× binding buffer containing 50 μL of bead-bound rGDH (final concentration ˜50 nM) and 100 μL of 100 nM captamer candidates for 30 min with gentle rotation. In parallel, negative controls consisting of the captamers incubated with uncoated beads were included. Following three washing steps, proteins and bound aptamers were eluted with 30 μL of elution buffer (20 mM Tris-HCl, 500 mM imidazole, pH 7.5) by shaking at 90° C. for 10 min. The resultant mixtures were then analyzed by 10% dPAGE, and quantified by Image Quant software. […] Pull-down assays were conducted in a total volume of 300 μL of 1× binding buffer containing 10 μL of bead-bound rGDH (final concentration ˜9.2 nM) and 100 μL of aptamers with serial dilutions for 30 min with gentle rotation. Following washing steps, the bound DNA was then analyzed by 10% dPAGE. […]
The inventors measured the dissociation constant (Kd) for Capt-2 and Capt-4 using the same pull-down assay, along with their linear counterparts, Lapt-2 and Lapt-4 (FIG. 2b). […]

Series [3] has the same target. Briefly: pulldown; competes with Anti-G1T1, same epitope. The following applies: tags: His-tag; expressed in E. coli; Pro-Lab Diagnostics; chain copies: 6; label: 32P; linear.
Series [4] has the same target. Put plainly: pulldown; competes with Anti-G1, Anti-G3, Anti-G7. The settings on record: tags: His-tag; expressed in E. coli; Pro-Lab Diagnostics; chain copies: 6; label: 32P; linear.
Series [5] concerns the target bovine serum albumin (BSA) (UniProt P02769 P02769:25-607).
In series [6] the target is toxin B (TcdB) (Clostridium difficile, UniProt P18177 SEQ:2-2366).
Series [7] concerns the target toxin A (TcdA) (Clostridium difficile, UniProt P16154 SEQ:1-2710).
Series [8] deals with T1, glutamate dehydrogenase (rGDH, …). Briefly: pulldown; 10 mM MgCl2, 150 mM NaCl, pH 7.2, 25 C; epitope distinct from aptamer 2. The settings on record: tags: His-tag; expressed in E. coli; Pro-Lab Diagnostics; chain copies: 6; label: 32P. The procedure: (§1) Following three washing steps, proteins and bound aptamers were eluted with 30 μL of elution buffer (20 mM Tris-HCl, 500 mM imidazole, pH 7.5) by shaking at 90° C. for 10 min. The resultant mixtures were then analyzed by 10% dPAGE, and quantified by Image Quant software. […] Pull-down assays were conducted in a total volume of 300 μL of 1× binding buffer containing 10 μL of bead-bound rGDH (final concentration ˜9.2 nM) and 100 μL of aptamers with serial dilutions for 30 min with gentle rotation. Following washing steps, the bound DNA was then analyzed by 10% dPAGE. The apparent dissociation constants (Kd) of each aptamer candidate were obtained by fitting the fractional bound DNA to the total aptamer concentration using a one-site binding model.
(§2) The inventors measured the dissociation constant (Kd) for Capt-2 and Capt-4 using the same pull-down assay, along with their linear counterparts, Lapt-2 and Lapt-4 (FIG. 2b). […] The structural prediction with the m-fold program (http: //unafold.rna.albany.edu/?q=mfold) also provides a good rationale for the functionality of aptamer 2 in both circular and linear configurations, as the random-sequence nucleotides are predicted to form the same structural elements in both forms (FIG. 9). […]

For series [9], the target named is T2, glutamate dehydrogenase (nGDH, native) (Clostridium difficile, UniProt P27346 SEQ:1-421).
T2 sequence: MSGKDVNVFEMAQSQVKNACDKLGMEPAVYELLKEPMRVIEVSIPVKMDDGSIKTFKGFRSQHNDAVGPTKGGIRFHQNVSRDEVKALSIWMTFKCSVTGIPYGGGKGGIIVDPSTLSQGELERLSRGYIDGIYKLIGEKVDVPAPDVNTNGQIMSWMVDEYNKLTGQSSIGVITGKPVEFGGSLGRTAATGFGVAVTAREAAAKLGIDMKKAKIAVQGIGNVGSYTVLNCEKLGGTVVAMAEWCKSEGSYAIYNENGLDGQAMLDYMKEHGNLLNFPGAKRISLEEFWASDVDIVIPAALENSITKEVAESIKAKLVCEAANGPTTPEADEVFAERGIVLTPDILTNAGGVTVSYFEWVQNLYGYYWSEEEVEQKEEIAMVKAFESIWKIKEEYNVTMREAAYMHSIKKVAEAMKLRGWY
Put plainly: FP filter; paper filter binding; binding buffer with 10 mM MgCl2, 1% BSA. The settings on record: tags: Pro-Lab Diagnostics; chain copies: 6 stated; label: 32P.

Series [10] concerns the target T1, glutamate dehydrogenase (rGDH, …). Put plainly: pulldown; 10 mM MgCl2, pH 7.2, 25 C; no detectable binding in dot blot (p157). The settings on record: tags: His-tag; expressed in E. coli; Pro-Lab Diagnostics; chain copies: 6; label: 32P; linear. How it is done:
as §1, §2

For series [11] the target is unchanged. Briefly: pulldown; no affinity to rGDH. The following applies: tags: His-tag; expressed in E. coli; Pro-Lab Diagnostics; chain copies: 6; label: 32P. How it is done:
as §1, with “The pull-down assays were conducted in a total volume of 300 μL of 1× binding buffer containing 50 μL of bead-bound rGDH (final concentration ˜50 nM) and 100 μL of 100 nM captamer candidates for 30 min with gentle rotation. In parallel, negative controls consisting of the captamers incubated with uncoated beads were included. Following three” for “Following three”
However, Capt-4 was a new sequence that was not observed in the previous selection. […] In this assay, each captamer candidate was incubated with bare NiMBs or rGDH-coated NiMBs, followed by elution of the bound captamer and radioactivity analysis by dPAGE (FIG. 2a).

Sequence of toxin B (TcdB) (P18177 2-2366): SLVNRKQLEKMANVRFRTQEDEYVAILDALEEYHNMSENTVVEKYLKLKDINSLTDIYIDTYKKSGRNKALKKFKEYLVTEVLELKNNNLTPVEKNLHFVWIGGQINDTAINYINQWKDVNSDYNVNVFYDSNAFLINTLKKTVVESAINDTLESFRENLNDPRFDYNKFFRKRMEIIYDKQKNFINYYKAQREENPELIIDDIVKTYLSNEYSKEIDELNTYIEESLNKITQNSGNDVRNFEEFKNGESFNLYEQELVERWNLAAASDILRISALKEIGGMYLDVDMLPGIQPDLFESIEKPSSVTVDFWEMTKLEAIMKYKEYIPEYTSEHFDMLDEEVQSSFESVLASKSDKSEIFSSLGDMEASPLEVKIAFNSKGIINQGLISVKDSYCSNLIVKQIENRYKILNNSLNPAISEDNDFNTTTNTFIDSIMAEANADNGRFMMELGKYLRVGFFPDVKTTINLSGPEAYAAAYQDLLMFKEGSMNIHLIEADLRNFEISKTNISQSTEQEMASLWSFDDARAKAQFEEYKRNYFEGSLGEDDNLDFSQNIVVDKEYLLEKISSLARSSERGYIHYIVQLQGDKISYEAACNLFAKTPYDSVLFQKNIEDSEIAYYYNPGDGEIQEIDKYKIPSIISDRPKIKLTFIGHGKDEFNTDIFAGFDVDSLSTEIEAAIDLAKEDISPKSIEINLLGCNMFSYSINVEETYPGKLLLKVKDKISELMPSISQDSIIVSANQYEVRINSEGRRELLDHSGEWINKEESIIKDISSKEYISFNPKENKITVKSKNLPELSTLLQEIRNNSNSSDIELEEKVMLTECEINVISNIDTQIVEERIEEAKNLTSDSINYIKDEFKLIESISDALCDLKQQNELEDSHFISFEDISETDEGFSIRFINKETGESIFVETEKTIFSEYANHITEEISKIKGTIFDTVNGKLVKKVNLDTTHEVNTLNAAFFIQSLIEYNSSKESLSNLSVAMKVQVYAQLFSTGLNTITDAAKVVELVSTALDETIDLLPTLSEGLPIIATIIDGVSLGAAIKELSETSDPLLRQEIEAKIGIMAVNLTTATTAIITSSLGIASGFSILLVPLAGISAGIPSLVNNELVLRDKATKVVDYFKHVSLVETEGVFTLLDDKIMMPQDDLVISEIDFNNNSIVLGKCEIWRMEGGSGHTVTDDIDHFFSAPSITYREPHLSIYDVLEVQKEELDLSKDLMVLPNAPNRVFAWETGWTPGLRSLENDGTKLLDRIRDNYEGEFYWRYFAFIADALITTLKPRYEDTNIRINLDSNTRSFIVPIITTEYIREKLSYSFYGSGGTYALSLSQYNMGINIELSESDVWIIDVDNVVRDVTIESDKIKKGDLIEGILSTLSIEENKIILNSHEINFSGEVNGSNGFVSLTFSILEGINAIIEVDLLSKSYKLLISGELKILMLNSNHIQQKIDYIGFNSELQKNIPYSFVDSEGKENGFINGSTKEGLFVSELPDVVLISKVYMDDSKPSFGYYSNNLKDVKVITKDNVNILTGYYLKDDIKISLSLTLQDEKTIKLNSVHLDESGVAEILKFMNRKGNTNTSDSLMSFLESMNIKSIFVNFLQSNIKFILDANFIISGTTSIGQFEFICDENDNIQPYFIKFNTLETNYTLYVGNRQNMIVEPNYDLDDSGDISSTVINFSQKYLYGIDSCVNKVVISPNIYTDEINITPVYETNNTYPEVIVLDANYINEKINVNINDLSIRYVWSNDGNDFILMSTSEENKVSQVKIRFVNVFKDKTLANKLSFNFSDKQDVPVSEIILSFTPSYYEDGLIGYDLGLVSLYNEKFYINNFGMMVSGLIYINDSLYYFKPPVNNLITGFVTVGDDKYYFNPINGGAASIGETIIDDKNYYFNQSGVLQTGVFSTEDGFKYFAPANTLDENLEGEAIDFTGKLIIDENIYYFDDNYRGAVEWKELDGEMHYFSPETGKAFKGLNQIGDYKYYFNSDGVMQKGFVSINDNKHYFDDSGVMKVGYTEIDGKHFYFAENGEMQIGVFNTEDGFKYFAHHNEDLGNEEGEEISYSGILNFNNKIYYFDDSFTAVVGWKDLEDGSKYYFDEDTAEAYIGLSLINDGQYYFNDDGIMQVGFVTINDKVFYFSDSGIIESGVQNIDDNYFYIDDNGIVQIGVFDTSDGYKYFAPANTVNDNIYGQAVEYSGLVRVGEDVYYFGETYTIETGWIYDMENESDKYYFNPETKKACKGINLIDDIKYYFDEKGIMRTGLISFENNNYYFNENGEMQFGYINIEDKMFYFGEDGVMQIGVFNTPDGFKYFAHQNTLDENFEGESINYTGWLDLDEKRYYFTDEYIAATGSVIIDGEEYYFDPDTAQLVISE
Sequence of bovine serum albumin (BSA) (P02769 25-607, one chain of several): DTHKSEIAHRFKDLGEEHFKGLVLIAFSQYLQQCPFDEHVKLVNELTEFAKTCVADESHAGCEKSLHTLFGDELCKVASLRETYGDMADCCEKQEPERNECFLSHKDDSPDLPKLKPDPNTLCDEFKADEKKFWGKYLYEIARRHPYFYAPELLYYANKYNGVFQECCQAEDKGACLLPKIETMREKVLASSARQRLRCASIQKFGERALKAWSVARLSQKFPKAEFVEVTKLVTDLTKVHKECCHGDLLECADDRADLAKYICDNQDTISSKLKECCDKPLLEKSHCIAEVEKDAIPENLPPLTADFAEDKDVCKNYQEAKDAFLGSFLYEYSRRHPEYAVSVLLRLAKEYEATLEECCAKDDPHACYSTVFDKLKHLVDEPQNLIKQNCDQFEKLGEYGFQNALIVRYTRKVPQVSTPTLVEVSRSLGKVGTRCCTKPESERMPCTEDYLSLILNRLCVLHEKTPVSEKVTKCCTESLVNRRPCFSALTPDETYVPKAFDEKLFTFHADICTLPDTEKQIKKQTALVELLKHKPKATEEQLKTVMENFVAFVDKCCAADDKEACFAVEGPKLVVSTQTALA

B1: Capt-2 (ssDNA)
DNA: CAGGTCCATCGAGTGGTAGGAGGAGGTATTTAGTGCCAAGCCATCTCAAACGACGTCTGAGTCGCACTGCTCCTGAACGTAC
For B1, the Kd in series [1] is 4.4 nM.

B2: Lapt-2 (Anti-G1) (ssDNA)
DNA: CAGGTCCATCGAGTGGTAGGAGGAGGTATTTAGTGCCAAGCCATCTCAAACGACGTCTGAGTCGCACTGCTCCTGAACGTAC
With B2, the Kd in series [2] came out at 5.6 nM.

B3: Anti-G3 (ssDNA)
DNA: CAGGTCCATCGAGTGGTAGGATGCAGCGGACAGTGTGGGACCATCGCTGCGGATGTATGAATCGCACTGCTCCTGAACGTAC
On to B3, for which, in series [3], the binding result is “binds”.

B4: Anti-G1T1 (ssDNA)
DNA: TAGGAGGAGGTATTTAGTGCCAAGCCATCTCAAACGACGTCTGAGTCGCACTGCTCCTG
As for B4, the binding result in [4] is given as “binds”.

B5: Capt-4 (ssDNA)
DNA: CAGGTCCATCGAGTGGTAGGACGACCCGAATAGTGGCATATCAATGAGTGCTTGTCATCTTTCGCACTGCTCCTGAACGTAC
With B5, the binding result in series [5], in series [6] and in series [7] was “no binding” each time. Also, the Kd in series [8] is 12.3 nM; in [9], 2.8 nM.

B6: Lapt-4 (ssDNA)
DNA: CAGGTCCATCGAGTGGTAGGACGACCCGAATAGTGGCATATCAATGAGTGCTTGTCATCTTTCGCACTGCTCCTGAACGTAC
Consider B6, for which the Kd in series [10] was 293 nM.

B7: Scrambled Capt-2 (ssDNA)
DNA: CGGGAGTACGCATGTATGAGACACCCACGCTATGTCCCTACTATGAGGTGGAGACTTGCTACGTGCATCGCAGATCGGTCAA
As to B7, the binding result in series [11] is on record as “no binding”.

B8: Scrambled Capt-4 (ssDNA)
DNA: GAAGGATTCGGACTAGGATCCGGTCCAACTACCGGTGCCCTAATGGCATCAAAACTGCGTACCGAGCGTGTTTATCTTTCTG
As for B8, the binding result in series [11] is on record as “no binding”.

B9: Anti-G7 (ssDNA)
DNA: CAGGTCCATCGAGTGGTAGGACCCAACCCACGATGCGCAAGAGGAATGCAGCCTACCAGCATCGCACTGCTCCTGAACGTAC
For the molecule B9, in series [3], the binding result is “binds”.

As a reminder, the Kd is a measure of binding affinity in units of concentration.
